In article PMC7464098, “Conformational Equilibrium of NADPH–Cytochrome P450 Oxidoreductase Is Essential for Heme Oxygenase Reaction” (Antioxidants, 2020):

Tests used:
Conditions in all cases: both partners purified
[1] = biological target: T1, rat CPR mutant lacking Thr236 to Glu239 of the hinge (open-form stabilized CPR) (rat, UniProt P00388 58-678, ΔTGEE (from Thr236 to Glu239 removed)); test: AUC; sedimentation equilibrium, 5 μM heme–rHO-1 plus 5 μM CPR sample, 25 °C, 0.1 M potassium phosphate pH 7.4, 15,000 rpm, absorbance at 455 nm; fit to HO-1 + CPR ⇄ HO-1•CPR
T1 construct: rat NADPH–cytochrome P450 reductase, soluble form without the membrane-spanning region (Met1-Ile57), four consecutive hinge residues Thr236 to Glu239 removed; Holds FAD and FMN; also called ΔTGEE; source: E. coli, purified
T1 sequence (looked up): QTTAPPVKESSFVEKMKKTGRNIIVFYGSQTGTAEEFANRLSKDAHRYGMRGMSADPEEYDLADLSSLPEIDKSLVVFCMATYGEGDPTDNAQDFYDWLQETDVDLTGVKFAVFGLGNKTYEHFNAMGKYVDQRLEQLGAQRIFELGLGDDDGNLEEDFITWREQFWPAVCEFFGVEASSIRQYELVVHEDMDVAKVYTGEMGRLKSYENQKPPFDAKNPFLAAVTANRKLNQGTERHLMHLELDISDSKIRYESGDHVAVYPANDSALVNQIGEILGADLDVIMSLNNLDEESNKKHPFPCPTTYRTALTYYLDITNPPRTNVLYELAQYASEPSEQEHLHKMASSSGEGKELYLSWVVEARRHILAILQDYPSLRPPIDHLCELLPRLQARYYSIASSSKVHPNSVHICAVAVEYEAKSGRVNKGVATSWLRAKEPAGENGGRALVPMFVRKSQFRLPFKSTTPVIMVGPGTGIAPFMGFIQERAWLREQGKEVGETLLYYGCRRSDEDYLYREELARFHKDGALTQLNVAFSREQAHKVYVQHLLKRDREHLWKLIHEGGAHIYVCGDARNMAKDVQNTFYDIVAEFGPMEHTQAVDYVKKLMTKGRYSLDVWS

[2] = biological target: rat CPR mutant with a disulfide bridge Cys147–Cys514 (closed-form stabilized CPR) (rat, UniProt P00388 58-678, Asp147 substituted with cysteine | Arg514 substituted with cysteine | Cys136Ala …, disulfide bond between Cys147 and Cys514); test: AUC; sedimentation equilibrium, equimolar mixtures (15 μM each for 147CC514; concentrations for rCPR and IAM/DTT-treated 147CC514 not told), 25 °C, 0.1 M potassium phosphate pH 7.4, 15,000 rpm, absorbance at 455 nm; apparent affinity
[3] = biological target: IAM/DTT-treated 147CC514 (rat, UniProt P00388 58-678, Asp147 substituted with cysteine | Arg514 substituted with cysteine | Cys136Ala …, disulfide bond between Cys147 and Cys514 cleaved, both cysteine residues alkylated (2-iodoacetamide)); test: as above
[4] = biological target: T2, rat NADPH–cytochrome P450 oxidoreductase (soluble form) (rat, UniProt P00388 58-678); test: as above
T2 construct: Holds FAD and FMN; The limit Met1-Ile57 is printed in the sentence on the 147CC514 cDNA; also called rCPR; CPR; source: E. coli, purified
T2 sequence (looked up): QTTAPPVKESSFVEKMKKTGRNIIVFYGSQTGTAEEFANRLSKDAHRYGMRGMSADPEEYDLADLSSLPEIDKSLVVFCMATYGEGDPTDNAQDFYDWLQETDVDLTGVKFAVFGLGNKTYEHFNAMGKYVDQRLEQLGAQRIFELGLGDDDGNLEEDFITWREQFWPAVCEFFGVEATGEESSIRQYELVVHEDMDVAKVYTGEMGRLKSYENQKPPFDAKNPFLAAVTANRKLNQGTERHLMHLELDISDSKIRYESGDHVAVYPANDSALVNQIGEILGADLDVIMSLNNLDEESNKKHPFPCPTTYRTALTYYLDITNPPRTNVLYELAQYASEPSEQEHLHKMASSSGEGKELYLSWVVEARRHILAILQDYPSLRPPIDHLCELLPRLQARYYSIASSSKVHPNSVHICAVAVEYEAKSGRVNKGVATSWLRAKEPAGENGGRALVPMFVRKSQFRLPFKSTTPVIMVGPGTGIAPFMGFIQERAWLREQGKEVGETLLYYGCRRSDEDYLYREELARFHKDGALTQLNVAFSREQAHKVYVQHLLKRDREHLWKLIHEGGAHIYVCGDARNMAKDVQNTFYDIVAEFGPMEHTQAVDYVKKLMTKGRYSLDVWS

Kd [1]: 0.178 ± 0.077 µM | Kd [2]: 111 ± 5 µM | Kd [3]: 65.5 ± 17 µM | Kd [4]: 62.1 ± 1.7 µM
B1: heme–rat heme oxygenase-1 complex (soluble form) (enzyme)
chain: MERPQLDSMSQDLSEALKEATKEVHIRAENSEFMRNFQKGQVSREGFKLVMASLYHIYTALEEEIERNKQNPVYAPLYFPEELHRRAALEQDMAFWYGPHWQEAIPYTPATQHYVKRLHEVGGTHPELLVAHAYTRYLGDLSGGQVLKKIAQKAMALPSSGEGLAFFTFPSIDNPTKFKQLYRARMNTLEMTPEVKHRVTEEAKTAFLLNIELFEELQALLTEEHKDQSPSQTEFLRQRPASLVQDTTSAETPRGKSQISTSSSQTP
notes: rat heme oxygenase-1 (HO-1), soluble form made by removing the membrane-spanning region; also called heme–rHO-1; heme–HO-1; source: E. coli, purified; reconstituted with 1.2 equiv. of heme, hydroxyapatite column
